This note sets out measurements from article PMC3435109 (2012).

In general, Kd refers to the constant that tells how readily two partners part at equilibrium. The low end stands for higher affinity, the high end for lower affinity.

The test addresses PKA catalytic subunit (Mus musculus, UniProt P05132). Put plainly: SPR. For orientation: SPR reads the build-up and loss of mass on a sensor chip optically.

B1: RIIβ 108-268 (protein)
chain: TRRASVCAEAYNPDEEEDDAESRIIHPKTDDQRNRLQEACKDILLFKNLDPEQMSQVLDAMFEKLVKEGEHVIDQGDDGDNFYVIDRGTFDIYVKCDGVGRCVGNYDNRGSFGELALMYNTPRAATITATSPGALWGLDRVTFRRIIVKNNAKKRKMYESF
Regarding B1, the affinity, expressed as Kd, was 11.3 nM.

B2: RIIβ 102-265 (protein)
chain: PVINRFTRRASVCAEAYNPDEEEDDAESRIIHPKTDDQRNRLQEACKDILLFKNLDPEQMSQVLDAMFEKLVKEGEHVIDQGDDGDNFYVIDRGTFDIYVKCDGVGRCVGNYDNRGSFGELALMYNTPRAATITATSPGALWGLDRVTFRRIIVKNNAKKRKMY
Take B2: the Kd stood at 0.6 nM.
